T1: sIL-6R (soluble IL-6 receptor; SBH Sciences) (human, UniProt P08887 20-365)
T1 construct: also called human IL-6R
T1 sequence: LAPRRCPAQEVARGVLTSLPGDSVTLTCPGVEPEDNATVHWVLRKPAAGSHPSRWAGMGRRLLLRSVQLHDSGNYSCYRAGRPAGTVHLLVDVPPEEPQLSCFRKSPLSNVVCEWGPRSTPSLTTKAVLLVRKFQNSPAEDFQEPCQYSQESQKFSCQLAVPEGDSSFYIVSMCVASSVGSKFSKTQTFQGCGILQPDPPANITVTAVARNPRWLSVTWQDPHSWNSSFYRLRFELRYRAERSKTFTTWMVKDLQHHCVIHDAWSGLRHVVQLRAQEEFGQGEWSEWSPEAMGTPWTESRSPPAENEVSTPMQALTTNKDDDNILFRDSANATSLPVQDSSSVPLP


Biological target: T1, sIL-6R (soluble IL-6 receptor; SBH …)
Test: SPR (BIAcore 3000), antibody on chip, sIL-6R analyte, 25 C
Protocol: All SPR measurements were performed on a BIAcore 3000 instrument (GE Biosciences, Piscataway, N.J.). BIAcore Software-BIAcore 3000 Control Software V3.2 was used for the operation and control of the BIAcore 3000 instrument. BiaEvaluation Software V4.1 was used for the analysis of SPR data from the BIAcore 3000 instrument and data was plotted using Graph Pad Prism Software Version 5. […] The indicated antibodies were used as the ligand for the construction of the reference channel of the chip. […] Each sample was injected for 3 min at a flow rate of 30 μL/min to allow for binding to chip-bound antibody. Next, binding buffer without analyte was sent over the chip at the same flow rate to allow for dissociation of bound analyte. After 500s, remaining bound analyte was removed by injecting regeneration solution (1M Formic acid). Data was analyzed by using the Kinetics Wizard and the manual fitting programs that are both included with the BiaEvaluation Software V4.1.

| Kd [nM] | Relative Affinity | koff [s⁻¹] | kon [M⁻¹ s⁻¹] | Binder |
| --- | --- | --- | --- | --- |
| 1.86 | 1.7 fold vs 25 (Tocilizumab) | 0.000199 | 107000 | 52# (antibody, human IgG1, kappa, V domains shown, also called Sample # 52) VH: QVQLQESGPGLVRPSQTLSLTCTVSGYSITSDHAWSWVRQPPGRGLEWIGYISYSGITTYNPSLKSRVTMLRDTSKNQFSLRLSSVTAADTAVYYCARSLARTTAIDFWGQGSLVTVSS VL: DIQMTQSPSSLSASVGDRVTITCRASQDISSYLNWYQQKPGKAPKLLIYYTSRLHSGVPSRFSGSGSGTDFTFTISSLQPEDIATYYCQQGNTLPYTFGQGTKVEIKR |
| 1.03 | 3.1 fold vs 25 (Tocilizumab) | 0.000161 | 157000 | 215# (antibody, human IgG1, kappa, V domains shown) VH: QVQLQESGPGLVRPSQTLSLTCTVSGYSITSDHAWSWVRQPPGRGLEWIGYISYSGMITYNPSLKSRVTMLRDTSKNQFSLRLSSVTAADTAVYYCARSLARMTAMDYWGQGSLVTVSS VL: DIQMTQSPSSLSASVGDRVTITCRASQDISSYLNWYQQKPGKAPKLLIYYTSRLHSGVPSRFSGSGSGTDFTFTISSLQPEDIATYYCQQGNTLPYTFGQGTKVEIKR |
| 0.663 | 4.8 fold vs 25 (Tocilizumab) | 9.01e-05 | 136000 | 221# (antibody, human IgG1, kappa, V domains shown) VH: QVQLQESGPGLVRPSQTLSLTCTVSGYSITSDHAWSWVRQPPGRGLEWIGYISYSGMITYNPSLKSRVTMLRDTSKNQFSLRLSSVTAADTAVYYCARSLARTTAIDFWGQGSLVTVSS VL: DIQMTQSPSSLSASVGDRVTITCRASQDISSYLNWYQQKPGKAPKLLIYYTSRLHSGVPSRFSGSGSGTDFTFTISSLQPEDIATYYCGQGNRLPYTFGQGTKVEIKR |
| 0.5 | 6.3 fold vs 25 (Tocilizumab) | 7.99e-05 | 160000 | 224# (antibody, human IgG1, kappa, V domains shown) VH: QVQLQESGPGLVRPSQTLSLTCTVSGYSITSDHAWSWVRQPPGRGLEWIGYISYSGMTTYNPSLKSRVTMLRDTSKNQFSLRLSSVTAADTAVYYCARCLARTTAMDYWGQGSLVTVSS VL: DIQMTQSPSSLSASVGDRVTITCRASQDISSYLNWYQQKPGKAPKLLIYYTSRLHSGVPSRFSGSGSGTDFTFTISSLQPEDIATYYCQQGNTLPYTFGQGTKVEIKR |
| 0.645 | 4.9 fold vs 25 (Tocilizumab) | 0.000105 | 163000 | 225# (antibody, human IgG1, kappa, V domains shown) VH: QVQLQESGPGLVRPSQTLSLTCTVSGYSITSDHAWSWVRQPPGRGLEWIGYISYSGMITYNPSLKSRVTMLRDTSKNQFSLRLSSVTAADTAVYYCARCLARTTAMDYWGQGSLVTVSS VL: DIQMTQSPSSLSASVGDRVTITCRASQDISSYLNWYQQKPGKAPKLLIYYTSRLHSGVPSRFSGSGSGTDFTFTISSLQPEDIATYYCQQGNTLPYTFGQGTKVEIKR |
| 0.491 | 6.4 fold vs 25 (Tocilizumab) | 5.96e-05 | 121000 | 219# (antibody, human IgG1, kappa, V domains shown) VH: QVQLQESGPGLVRPSQTLSLTCTVSGYSITSDHAWSWVRQPPGRGLEWIGYISYSGITTYNPSLKSRVTMLRDTSKNQFSLRLSSVTAADTAVYYCARCLARMTAIDFWGQGSLVTVSS VL: DIQMTQSPSSLSASVGDRVTITCRASQDISSYLNWYQQKPGKAPKLLIYYTSRLHSGVPSRFSGSGSGTDFTFTISSLQPEDIATYYCGQGNRLPYTFGQGTKVEIKR |
| 0.283 | 11.2 fold vs 25 (Tocilizumab) | 4.86e-05 | 172000 | 59# (antibody, human IgG1, kappa, V domains shown, also called Sample # 59) VH: QVQLQESGPGLVRPSQTLSLTCTVSGYSITSDHAWSWVRQPPGRGLEWIGFISYSGMTTYNPSLKSRVTMLRDTSKNQFSLRLSSVTAADTAVYYCARCLARTTAMDYWGQGSLVTVSS VL: DIQMTQSPSSLSASVGDRVTITCRASQDISSYLNWYQQKPGKAPKLLIYYTSRLHSGVPSRFSGSGSGTDFTFTISSLQPEDIATYYCQQGNTLPYTFGQGTKVEIKR |
| 0.286 | 11 fold vs 25 (Tocilizumab) | 3.66e-05 | 128000 | 222# (antibody, human IgG1, kappa, V domains shown, also called Sample # 222) VH: QVQLQESGPGLVRPSQTLSLTCTVSGYSITSDHAWSWVRQPPGRGLEWIGYISYSGMITYNPSLKSRVTMLRDTSKNQFSLRLSSVTAADTAVYYCARCLARMTAMDYWGQGSLVTVSS VL: DIQMTQSPSSLSASVGDRVTITCRASQDISSYLNWYQQKPGKAPKLLIYYTSRLHSGVPSRFSGSGSGTDFTFTISSLQPEDIATYYCGQGNRLPYTFGQGTKVEIKR |
| 0.581 | 5.4 fold vs 25 (Tocilizumab) | 0.000109 | 188000 | 217# (antibody, human IgG1, kappa, V domains shown, also called Sample # 217) VH: QVQLQESGPGLVRPSQTLSLTCTVSGYSITSDHAWSWVRQPPGRGLEWIGYISYSGMITYNPSLKSRVTMLRDTSKNQFSLRLSSVTAADTAVYYCARCLARMTAMDYWGQGSLVTVSS VL: DIQMTQSPSSLSASVGDRVTITCRASQDISSYLNWYQQKPGKAPKLLIYYTSRLHSGVPSRFSGSGSGTDFTFTISSLQPEDIATYYCQQGNTLPYTFGQGTKVEIKR |
| 0.621 | 5.1 fold vs 25 (Tocilizumab) | 6.63e-05 | 107000 | 218# (antibody, human IgG1, kappa, V domains shown) VH: QVQLQESGPGLVRPSQTLSLTCTVSGYSITSDHAWSWVRQPPGRGLEWIGYISYSGMITYNPSLKSRVTMLRDTSKNQFSLRLSSVTAADTAVYYCARCLARMTAIDFWGQGSLVTVSS VL: DIQMTQSPSSLSASVGDRVTITCRASQDISSYLNWYQQKPGKAPKLLIYYTSRLHSGVPSRFSGSGSGTDFTFTISSLQPEDIATYYCQQGNTLPYTFGQGTKVEIKR |
| 0.387 | 8.2 fold vs 25 (Tocilizumab) | 7.24e-05 | 187000 | 55# (antibody, human IgG1, kappa, V domains shown, also called Sample # 55) VH: QVQLQESGPGLVRPSQTLSLTCTVSGYSITSDHAWSWVRQPPGRGLEWIGFISYSGMITYNPSLKSRVTMLRDTSKNQFSLRLSSVTAADTAVYYCARCLARTTAMDYWGQGSLVTVSS VL: DIQMTQSPSSLSASVGDRVTITCRASQDISSYLNWYQQKPGKAPKLLIYYTSRLHSGVPSRFSGSGSGTDFTFTISSLQPEDIATYYCQQGNTLPYTFGQGTKVEIKR |
| 0.368 | 8.6 fold vs 25 (Tocilizumab) | 4.91e-05 | 133000 | 223# (antibody, human IgG1, kappa, V domains shown, also called Sample # 223) VH: QVQLQESGPGLVRPSQTLSLTCTVSGYSITSDHAWSWVRQPPGRGLEWIGYISYSGMITYNPSLKSRVTMLRDTSKNQFSLRLSSVTAADTAVYYCARCLARMTAIDFWGQGSLVTVSS VL: DIQMTQSPSSLSASVGDRVTITCRASQDISSYLNWYQQKPGKAPKLLIYYTSRLHSGVPSRFSGSGSGTDFTFTISSLQPEDIATYYCGQGNRLPYTFGQGTKVEIKR |
| 1.83 | 1.7 fold vs 25 (Tocilizumab) | 0.000266 | 145000 | 216# (antibody, human IgG1, kappa, V domains shown, also called Sample # 216) VH: QVQLQESGPGLVRPSQTLSLTCTVSGYSITSDHAWSWVRQPPGRGLEWIGYISYSGMITYNPSLKSRVTMLRDTSKNQFSLRLSSVTAADTAVYYCARSLARTTAIDFWGQGSLVTVSS VL: DIQMTQSPSSLSASVGDRVTITCRASQDISSYLNWYQQKPGKAPKLLIYYTSRLHSGVPSRFSGSGSGTDFTFTISSLQPEDIATYYCQQGNTLPYTFGQGTKVEIKR |
| 0.483 | 6.5 fold vs 25 (Tocilizumab) | 6.34e-05 | 131000 | 220# (antibody, human IgG1, kappa, V domains shown, also called Sample # 220) VH: QVQLQESGPGLVRPSQTLSLTCTVSGYSITSDHAWSWVRQPPGRGLEWIGYISYSGMITYNPSLKSRVTMLRDTSKNQFSLRLSSVTAADTAVYYCARSLARMTAMDYWGQGSLVTVSS VL: DIQMTQSPSSLSASVGDRVTITCRASQDISSYLNWYQQKPGKAPKLLIYYTSRLHSGVPSRFSGSGSGTDFTFTISSLQPEDIATYYCGQGNRLPYTFGQGTKVEIKR |
| 0.369 | 8.7 fold vs 25 (Tocilizumab) | 4.69e-05 | 127000 | 214# (antibody, human IgG1, kappa, V domains shown) VH: QVQLQESGPGLVRPSQTLSLTCTVSGYSITSDHAWSWVRQPPGRGLEWIGYISYSGITTYNPSLKSRVTMLRDTSKNQFSLRLSSVTAADTAVYYCARCLARMTAIDFWGQGSLVTVSS VL: DIQMTQSPSSLSASVGDRVTITCRASQDISSYLNWYQQKPGKAPKLLIYYTSRLHSGVPSRFSGSGSGTDFTFTISSLQPEDIATYYCQQGNTLPYTFGQGTKVEIKR |
| 0.286 | 11 fold vs 25 (Tocilizumab) | 4.14e-05 | 145000 | 69# (antibody, human IgG1, kappa, V domains shown, also called Sample # 69) VH: QVQLQESGPGLVRPSQTLSLTCTVSGYSITSDHAWSWVRQPPGRGLEWIGFISYSGMTTYNPSLKSRVTMLRDTSKNQFSLRLSSVTAADTAVYYCARCLARTTAIDFWGQGSLVTVSS VL: DIQMTQSPSSLSASVGDRVTITCRASQDISSYLNWYQQKPGKAPKLLIYYTSRLHSGVPSRFSGSGSGTDFTFTISSLQPEDIATYYCQQGNTLPYTFGQGTKVEIKR |
| 0.102 | 31 fold vs 25 (Tocilizumab) | 1.6e-05 | 156000 | 226# (antibody, human IgG1, kappa, V domains shown) VH: QVQLQESGPGLVRPSQTLSLTCTVSGYSITSDHAWSWVRQPPGRGLEWIGYISYSGMITYNPSLKSRVTMLRDTSKNQFSLRLSSVTAADTAVYYCARCLARATAMDYWGQGSLVTVSS VL: DIQMTQSPSSLSASVGDRVTITCRASQDISSYLNWYQQKPGKAPKLLIYYTSRLHSGVPSRFSGSGSGTDFTFTISSLQPEDIATYYCQQGNTLPYTFGQGTKVEIKR |

From patent publication US20190315854A1 (BEIJING VDJBIO, published 2019)
